Test results taken from the supplement of paper PMC7877785.
± gives the uncertainty stated by the source.

Assay: self-splicing fitness, log relative to wild type (ln ratio); higher = more splicing; Tetrahymena group I intron in knt gene, E. coli kanamycin selection, DiMSum; sequences stand for … in CUCUCU…GGAGGGAAAAGUUAUCAGGCAUGCACCUGGUAGCUAGUCUUUAAACCAAUAGAUUGCAUCGGUUUAAAAGGCAAGACCGUCAAAUUGCGGGAAAGGGGUCAACAGCCGUUCAGUACCAAGUCUCAGGGGAAACUUUGAGAUGGCCUUGCAAAGGGUAUGGUAAUAAGCUGACGGACAUGGUCCUAACCACGCAGCCAAGUCCUAAGUCAACAGAUCUUCUGUUGAUAUGGAUGCAGUUCACAGACUAAAUGUCGGUCGGGGAAGAUGUAUUCUUCUCAUAAGAUAUAGUCGGACCUCUCCUUAAUGGGAGCUAGCGGAUGAAGUGAUGCAACACUGGAGCCGCUGGGAACUAAUUUGUAUGCGAAAGUAUAUUGAUUAGUUUUGGAGUACUCGUGGUCG
Method in brief: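 Six replicate transformations of E. coli BL21(DE3) with a pET-22b(+) library were grown overnight at 37°C or 30°C. The library randomised all eight P1ex-region intron nucleotides, the intron lying in the knt kanamycin-resistance gene, and plates were LB agar with or without 25 μg/mL kanamycin plus 100 μg/mL carbenicillin, 50 μM IPTG and 0.2% rhamnose. Pooled colonies were amplicon-sequenced on an Illumina HiSeq 2500, and fitness is the DiMSum error-weighted combination of wild-type-normalised replicate fold changes, kanamycin versus none.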

| Sequence | self-splicing fitness (ln) (30 °C) | self-splicing fitness (ln) (37 °C) |
| --- | --- | --- |
| UCGCAGCAAUAUUACGGUGA | -4.44 ± 0.46 | -2.45 ± 0.15 |
| UCGCAGCAAUAUUACGGUGU |  | -2.63 ± 0.24 |
| UCGCAGCAAUAUUACGGUUG | -2.75 ± 0.1 | -1.47 ± 0.12 |
| UCGCAGCAAUAUUACGUAAA | -1.69 ± 0.094 | -1.12 ± 0.12 |
| UCGCAGCAAUAUUACGUAAU | -3.39 ± 0.15 | -2.19 ± 0.21 |
| UCGGAGCAAUAUUACGAAGA |  | -2.3 ± 0.42 |
| UCGGAGCAAUAUUACGAAGU |  | -0.529 ± 0.24 |
| UCGGAGCAAUAUUACGACAC | -3.18 ± 0.48 | -1.19 ± 0.3 |
| UCGGAGCAAUAUUACGAGAU |  | -1.51 ± 0.35 |
| UCGGAGCAAUAUUACGAGCC | -2.93 ± 0.41 |  |
| UCGGAGCAAUAUUACGAGGA | -3.64 ± 0.4 | -0.618 ± 0.21 |
| UCGGAGCAAUAUUACGCGCU |  | -2.3 ± 0.37 |
| UCGGAGCAAUAUUACGCGGU | -3.14 ± 0.23 | -2.94 ± 0.43 |
| UCGGAGCAAUAUUACGCUUG | -3.64 ± 0.27 | -2.83 ± 0.35 |
| UCGGAGCAAUAUUACGGGAA |  | -2.08 ± 0.4 |
| UCGGAGCAAUAUUACGGGCA | -2.38 ± 0.16 | -0.971 ± 0.13 |
| UCGGAGCAAUAUUACGGUAA | -3.18 ± 0.21 | -1.68 ± 0.23 |
| UCGGAGCAAUAUUACGUCCC | -1.39 ± 0.46 |  |
| UCGGAGCAAUAUUACGUGAA | -3.41 ± 0.39 | -1.63 ± 0.14 |
| UCGGAGCAAUAUUACGUGGA | -1.28 ± 0.2 | -1.48 ± 0.18 |
| UCGGAGCAAUAUUACGUUUC |  | -2.02 ± 0.43 |
| UCGUAGCAAUAUUACGAACA | -2.55 ± 0.28 | -1.82 ± 0.2 |
| UCGUAGCAAUAUUACGACUU | -2.7 ± 0.22 | -0.781 ± 0.17 |
| UCGUAGCAAUAUUACGAGCA | -0.579 ± 0.3 | -1.13 ± 0.24 |
| UCGUAGCAAUAUUACGAUUU | -3.1 ± 0.25 | -2.4 ± 0.24 |
| UCGUAGCAAUAUUACGCAAC |  | -2.42 ± 0.48 |

| Sequence | self-splicing fitness (ln) (30 °C) | self-splicing fitness (ln) (37 °C) |
| --- | --- | --- |
| UCGUAGCAAUAUUACGCAAG | -3.91 ± 0.35 | -2.12 ± 0.27 |
| UCGUAGCAAUAUUACGCGCA | -0.601 ± 0.11 | -0.0623 ± 0.15 |
| UCGUAGCAAUAUUACGCUAG | -2.95 ± 0.26 | -2.32 ± 0.29 |
| UCGUAGCAAUAUUACGCUCU | -3.62 ± 0.32 | -0.606 ± 0.18 |
| UCGUAGCAAUAUUACGGACG | -2.58 ± 0.24 | -1.68 ± 0.21 |
| UCGUAGCAAUAUUACGGAGC | -2.59 ± 0.18 | -2.35 ± 0.39 |
| UCGUAGCAAUAUUACGGGUG | -1.66 ± 0.11 | -2.66 ± 0.14 |
| UCGUAGCAAUAUUACGGUAA | -2.67 ± 0.35 | 0.253 ± 0.19 |
| UCGUAGCAAUAUUACGUCCC | -2.74 ± 0.3 |  |
| UCGUAGCAAUAUUACGUGAA | -2.73 ± 0.16 | -1.8 ± 0.17 |
| UCGUAGCAAUAUUACGUGAU | -2.2 ± 0.2 | -1.48 ± 0.46 |
| UCGUAGCAAUAUUACGUGGU | -3.45 ± 0.4 | -2.67 ± 0.48 |
| UCGUAGCAAUAUUACGUGUU | -3.06 ± 0.21 | -2.46 ± 0.19 |
| UCUAAGCAAUAUUACGACCU | -3.7 ± 0.35 | -1.92 ± 0.24 |
| UCUAAGCAAUAUUACGACGU | -0.257 ± 0.087 | -0.334 ± 0.11 |
| UCUAAGCAAUAUUACGAGAC | -1.53 ± 0.12 | -2.52 ± 0.2 |
| UCUAAGCAAUAUUACGAUCC | -3.87 ± 0.39 | -2.5 ± 0.36 |
| UCUAAGCAAUAUUACGCUAG | -2.73 ± 0.16 | -2.89 ± 0.26 |
| UCUAAGCAAUAUUACGCUCU | -3.32 ± 0.47 | -2.58 ± 0.41 |
| UCUAAGCAAUAUUACGGAAU | -4.16 ± 0.46 | -1.64 ± 0.33 |
| UCUAAGCAAUAUUACGGACC | -1.71 ± 0.24 | -1.99 ± 0.32 |
| UCUAAGCAAUAUUACGGAGU | -2.04 ± 0.13 | -0.505 ± 0.14 |
| UCUAAGCAAUAUUACGGCCU | -3.76 ± 0.41 |  |
| UCUAAGCAAUAUUACGGUAC | -3.5 ± 0.3 | -2.78 ± 0.4 |
| UCUAAGCAAUAUUACGGUAU | -4.13 ± 0.27 | -1.56 ± 0.21 |
| UCUAAGCAAUAUUACGGUUA | -3.9 ± 0.42 | -1.76 ± 0.17 |

| Sequence | self-splicing fitness (ln) (30 °C) | self-splicing fitness (ln) (37 °C) |
| --- | --- | --- |
| UCUAAGCAAUAUUACGUAUA | -2.55 ± 0.17 | -1.45 ± 0.12 |
| UCUAAGCAAUAUUACGUAUU | -3.09 ± 0.2 | -2.16 ± 0.2 |
| UCUAAGCAAUAUUACGUCAG | -1.23 ± 0.073 | -0.611 ± 0.08 |
| UCUAAGCAAUAUUACGUCCU | -2.72 ± 0.28 | -0.964 ± 0.21 |
| UCUAAGCAAUAUUACGUGAG | -1.32 ± 0.074 | 0.269 ± 0.096 |
| UCUAAGCAAUAUUACGUGCU | -4.04 ± 0.34 | -2.37 ± 0.2 |
| UCUAAGCAAUAUUACGUUCG | -1.38 ± 0.12 | -1.12 ± 0.12 |
| UCUCAGCAAUAUUACGAAAA | -1.84 ± 0.26 | -2.59 ± 0.26 |
| UCUCAGCAAUAUUACGAACG | -1.88 ± 0.12 | -0.666 ± 0.14 |
| UCUCAGCAAUAUUACGAAGG | -2.79 ± 0.19 | -0.314 ± 0.14 |
| UCUCAGCAAUAUUACGAGAC | -2.81 ± 0.15 | -2.71 ± 0.21 |
| UCUCAGCAAUAUUACGCAAG | -4.47 ± 0.39 | -2.02 ± 0.2 |
| UCUCAGCAAUAUUACGCGUA | -1.04 ± 0.1 | -0.966 ± 0.1 |
| UCUCAGCAAUAUUACGCUCC | -1.02 ± 0.39 |  |
| UCUCAGCAAUAUUACGGCCU |  | -1.67 ± 0.34 |
| UCUCAGCAAUAUUACGGGAA | -2.28 ± 0.17 | -0.762 ± 0.11 |
| UCUCAGCAAUAUUACGGGAG | -2.79 ± 0.2 | -1.4 ± 0.16 |
| UCUCAGCAAUAUUACGGGAU | -4.25 ± 0.27 | -2.87 ± 0.19 |
| UCUCAGCAAUAUUACGGGCA | -0.117 ± 0.073 | 0.575 ± 0.09 |
| UCUCAGCAAUAUUACGGGGC | -3.03 ± 0.23 | -3.85 ± 0.37 |
| UCUCAGCAAUAUUACGGGUU | -2.06 ± 0.081 | -1.27 ± 0.1 |
| UCUCAGCAAUAUUACGGUUU | -1.91 ± 0.082 | -0.695 ± 0.081 |
| UCUCAGCAAUAUUACGUCCG | -2.5 ± 0.28 | -2.26 ± 0.41 |
| UCUCAGCAAUAUUACGUCCU | -2.36 ± 0.14 | -2.57 ± 0.24 |
| UCUCAGCAAUAUUACGUGCC | -3.38 ± 0.26 | -1.71 ± 0.23 |
| UCUCAGCAAUAUUACGUUCU | -3.49 ± 0.16 | -1.86 ± 0.17 |

| Sequence | self-splicing fitness (ln) (30 °C) | self-splicing fitness (ln) (37 °C) |
| --- | --- | --- |
| UCUGAGCAAUAUUACGAGCC | -1.65 ± 0.22 |  |
| UCUGAGCAAUAUUACGCACG | -3.08 ± 0.33 |  |
| UCUGAGCAAUAUUACGCAGC | -2.75 ± 0.42 |  |
| UCUGAGCAAUAUUACGCCAC | -2.41 ± 0.49 |  |
| UCUGAGCAAUAUUACGCCUG | -3.02 ± 0.18 | -2.18 ± 0.2 |
| UCUGAGCAAUAUUACGCGAA |  | -1.8 ± 0.25 |
| UCUGAGCAAUAUUACGCGAG | -3.09 ± 0.2 | -2.28 ± 0.24 |
| UCUGAGCAAUAUUACGCUGU | -2 ± 0.23 | -1.07 ± 0.19 |
| UCUGAGCAAUAUUACGGAAC | -4.04 ± 0.39 | -3.05 ± 0.28 |
| UCUGAGCAAUAUUACGGAAG | -4.27 ± 0.2 | -3.07 ± 0.23 |
| UCUGAGCAAUAUUACGGCAG | -1.8 ± 0.097 | -0.992 ± 0.12 |
| UCUGAGCAAUAUUACGGCGC | -3.06 ± 0.29 | -2.02 ± 0.32 |
| UCUGAGCAAUAUUACGGUCU | -2.46 ± 0.21 | -2.96 ± 0.37 |
| UCUGAGCAAUAUUACGGUGC | -4.39 ± 0.39 | -2.45 ± 0.25 |
| UCUGAGCAAUAUUACGUAAG | -0.697 ± 0.11 | -0.863 ± 0.19 |
| UCUGAGCAAUAUUACGUAUU | -4.55 ± 0.25 | -3.08 ± 0.25 |
| UCUGAGCAAUAUUACGUCGU | -3.79 ± 0.29 | -1.91 ± 0.25 |
| UCUUAGCAAUAUUACGACAC | -2.77 ± 0.46 | -1.65 ± 0.22 |
| UCUUAGCAAUAUUACGACCA | -1.32 ± 0.48 |  |
| UCUUAGCAAUAUUACGACGC | -2.07 ± 0.28 | -1.02 ± 0.23 |
| UCUUAGCAAUAUUACGACUC |  | -1.03 ± 0.5 |
| UCUUAGCAAUAUUACGCACG | -1.56 ± 0.29 | -1.47 ± 0.34 |
| UCUUAGCAAUAUUACGGCCA | -2.31 ± 0.38 |  |
| UCUUAGCAAUAUUACGGGGA | -1.1 ± 0.15 | -1 ± 0.16 |
